From the domain aggregation screens of Martell et al. (2025)

Test: soluble fraction after stress (log2 fold change); higher = more stays soluble; pooled small domains, quantitative proteomics
Details: stress: 75 degC
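Also: 20 min heating vs room temperature control held 20 min.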

HMDIEITIPPEAKELDVSKILISGNIITDEQEFLDYLKQNNVAAFKDGNYKLNKNMTTEEIVNQIK
soluble fraction (log2): 0.691

HMDIESREAWVDASGMGVRLDRWLTQLAPEFSRNHLQSLIERGAVRVDGQPALVASRKLRIGQQVAVSLIP
soluble fraction (log2): -1.31

HMDIEVEVPNLVGMSLDEAKSIIQSMGLVVGLTIEDPSAKVSDNSVTKQKPTYQTGVKLRSGDMIDIWYAG
soluble fraction (log2): -0.659

HMDIFSSFVAIKNANVRELPTAKSAQVATLSKGSEVTALGKVKGKNWYLVARDGKELGYVFGSLIAEAET
soluble fraction (log2): -1.56

HMDIINLADNIARLRRRRQITQEELADYLGVTKAAVSKWENRQTMPDILLLPRLAGLFEVTIDELVGY
soluble fraction (log2): -2.19

HMDIKDRSGVTIDESNEAQQESIIRESWAEQKISGNVDNYIAYLKANGMLLETAKIELAALQEKDASLRE
soluble fraction (log2): 0.774

HMDILEVLIKKDLAMELLEQLTERQRTVVYLRYFYQLNQKEIADYLGISQQRVSEILSRAKAVLTAYTKK
soluble fraction (log2): -3

HMDILPEGNYKVNYDVIDEVGNIVANKNDIVVTEKSIKPLNTILGIDLYEVIHSQTGKYFTINGDNLTN
soluble fraction (log2): -0.0277

HMDINLGIGPLVKKYRTIKGYSIRELARNINVTASMLSQIERDIVNPSINTLKAISVELGVPMYKFFM
soluble fraction (log2): -2.38

HMDINLSENLVRLRHAKKLTQEQLADFLGVTKASVSKWETRQSLPDILLLPRLAAFYGVTVDELIGYEP
soluble fraction (log2): -1.81

HMDISKTLGKNPLLIIDNIEYRGKTLDEITAMTGVKRFENIDIYGSEEAMKTYGEKAKDGVIIAYTT
soluble fraction (log2): 0.0575

HMDITGIGIKKRIKAIIDSEDKKNPLSDTQIVEILKNEGLEISRRTVAKYRSDLQIPSSSKRKK
soluble fraction (log2): 0.143

HMDIVEIYVGEEDGERIDSYLAQELNNVSRSYVQGLIKNQLITVNGNHVKPKHIVKEGEHIIVNIPPPKV
soluble fraction (log2): -0.0948

HMDIVENSMPNVVGLELNRAKELMTQLGFTNVRYEPTESSRPENEVVYQSVDKDETLDVSSEIIIQYSSGV
soluble fraction (log2): 0.0628

HMDKEKLQEKLLQIFEAEPQKKFQVQDLVKVLDMEGAGQFKFVVQALADLEHNKQIKLSEDDTFSLIVKE
soluble fraction (log2): -0.173

HMDKENVLQLQKDLLRLSVNALEKRYYQFSDILLLKYILPLVPKEISIDDQSRLRSLLSGIN
soluble fraction (log2): -0.538

HMDKEPTHLHTFRLIKEGKSSEEIAEIRNITLGTVNTHLAKLIAVGELTIEQVISKHRLDYVMEAIKNSK
soluble fraction (log2): 0.176

HMDKKIVGVNAGKVWQALNEVTEISIVELAEKLNLSVESTALAAGWLAREDQISIERKNGTIELQRKN
soluble fraction (log2): -0.91

HMDKNNLLIIYRTNSEGTPYAFSVTPSAKSLDALHKDAKEMLPFLEKSMNNFFSIQIWERAEYLKY
soluble fraction (log2): -0.785

HMDKPGMRLNQFIAHSGISSRREADNLIKAGLVQVNGKIIVEMGFRVMPTDIVKFNNETIAS
soluble fraction (log2): -2.08

HMDKPIVFLEDTKAHKSSDLQSPVYMTVPKGTIAFVIAEKGDWSQVYAGRVLDRNLASQWVRRGFS
soluble fraction (log2): 0.267

HMDKSLDFASIKSVEIATGRKFGWHALKKWSKSNSSEIKTIPDPNFGEVKTYHKDAWLAVYNINLSPILD
soluble fraction (log2): -0.376

HMDKSPMIGTAEYEGVLYWRQTKDNGATWEWITDKNGDKMPVSGPAPAVGIDKDGYWTVNGESTGVLAKD
soluble fraction (log2): 0.225

HMDKVSYALGLGIGRQLTDMGAKDLNIDDFAQAIKDVLAGGEVKLSDAEAQTIVRNFFDEQEKKQRA
soluble fraction (log2): -0.029

HMDLANLQNGQTLPLQRDVEVISIPFGKTISLSEDSVVSIMQAKGSSVSVAYEGRLYLIEGSNLDALGLEP
soluble fraction (log2): -1.1

HMDLANRSLDRGITILESLARNGASSLADLHRDSGIAKSTIRRLLGTLIQHRLVRRSVADGLYRVTIPLPA
soluble fraction (log2): -1.42

HMDLDIQNYNLDEILELFKVSYDFDETELKKAHKMYLMTHPDKSNLNPNIFLFFVQAYDILRKLYEFR
soluble fraction (log2): -0.691

HMDLDIRDDIYRANIPNDYKLQQMQNNIDYDKVLTGYYNNRPEANVIANRTLQLANDVYNRD
soluble fraction (log2): 0.00307

HMDLDLNIDNYNFDDLLNLFGLKMKFSEDDLKKAKRSVLMTHPDKSGLDKQYFMFFTKAYKMLSQIYYFR
soluble fraction (log2): 0.572

HMDLDPNKPAIPIAYPRVLLNIMAEKGFSRTEVLAGSGLADSVFDKPDHRITPAQFLFILMNSFYLS
soluble fraction (log2): -0.67

HMDLFLVYQFIRRLATPFTEWKAHELGIIDDKGVQLKKRRDFTTREEKDAYGIFDIMITKLKRLIEKV
soluble fraction (log2): 0.0817

HMDLFSAVVHHIVGQQISTKAQATIWKRMRDEFGVVDAAAVLGAGVEKLQSFGMTFRKAEYITDFARKIE
soluble fraction (log2): -2.61

HMDLGLTDDQRLVYGLLSPTVPRSSGELLGMVDFGRSKLSRILKELIELGQVFTVGVGRGLKYKRG
soluble fraction (log2): -0.482

HMDLGTHMRLIVPTGMRVDHIVYESNGKNISVDHDRSISVRWNGEVVSIDVSPLPSRPDFDVLIYMSPK
soluble fraction (log2): -0.134

HMDLLAESLTRREAEVAALAARGLTNRAIAELFGLSVRTAETHLHRAMGKLGANRREDLLLHADRLDPG
soluble fraction (log2): -1.41

HMDLLESLSAREREVVHLASRGLVNKLIARELGITERTVKAHLSSAFEKLHIKDRVHLALLVNGI
soluble fraction (log2): -2.46

HMDLLKANNLSQINVDKLTDEEILKYSQQLKQSGLTESQAEQIAIARGMPATEIAKLKQRLISLTNMQ
soluble fraction (log2): 0.118

HMDLLVWRVADEDAGERIDKLVVDSLDDVSRTAVQQWIKDGLVTVNGKTVKPNYKAAAGDEVAVSVPEPE
soluble fraction (log2): 0.239

HMDLMKKTLTKEMLLIDFMKQQFPDSSTNKLRKMLSSGRVKINNLITHKAKSQLKLGDIFELANKPHD
soluble fraction (log2): -1.31

HMDLPGIVTETDRQRADLAARIGAAKVEAVLAGGARSVEADEDFDADTRRELHQFLTRMARRAFLEER
soluble fraction (log2): 0.1

HMDLPSSETLKVKLNLAKAYVTIEDFGAARRALDEVLSVSSLVDPDLTIQAKSLLAEIDQRS
soluble fraction (log2): -0.352

HMDLQAAWLQTVRHLLAHTEDVGDRFAEEARRIHYGEEPHRGIRGQATPEERLALREEGIETMSIPV
soluble fraction (log2): -0.919

HMDLQHQLTPRLKRLRLSGILETLEVRNQQAIAEKWSYVEFLTRLAEDEVERRDHKQLTLRLR
soluble fraction (log2): -0.529

HMDLSYPFTTVTTDNVNMRRSASSSSVVLERIDKGDSITVLGTSGNYYKVSYNDRTGYVLKQYVDVSAATT
soluble fraction (log2): -0.254

HMDLTPEEQMDLYRLLDSLPTEERTYLILHYFEERSFPEMAEILSMPEAKLKSRFYRILHRLRAHL
soluble fraction (log2): -2.74

HMDLTSDANLKEAKDQILNLLNDGKRHHVTEINKILLPPVQVQEALRFLIHEETVRVDASFLF
soluble fraction (log2): -0.104

HMDLVESYDLKIIYTSELINLLIDSSRLEEALNLFKDLKDEIDDVENLGFSAKNNLDYMESKLLHLG
soluble fraction (log2): -1.94

HMDLYIILGLERSATLSDVRRAYRRLARKYHPGINPGDRNSASVFTRVSEAYQVLSDPEQRRRYDSR
soluble fraction (log2): -2.84

HMDMDRRALLLALINDRYHASVAEFARAINKAPAQVHQWLSGNRALGNAGARDIEIRLNLAQGYFDH
soluble fraction (log2): -2.16

HMDMQMPIMNGLEFLERINLTLDDNFSIIVLTGKIEDKSIEKSFELGINAYLRKPFNIYALLGIVRQN
soluble fraction (log2): -0.135

HMDMSDFEVVRDMYLTGKVWNAGDIVEAKGITGEVVRKGTNYLSFVDKNGKVHKAWLHEIEL
soluble fraction (log2): -0.197

HMDNAILQELYDYYKEDPSLSQSELIISMLTRIQEAVGYVSKDVQEEVARLAGVNRGYVAAIIKNLPHL
soluble fraction (log2): -1.17

HMDNEYDKVYQAALSKLEGYPRSSITTAVIKDVVAQTIKYFEIKNFGYEDTIINQLQSAFTVKSSS
soluble fraction (log2): -0.0883

HMDNLSESQIKAYSSILSRTHEISDLAENKDYLAFSLWIANILRDPQSVREETAKRVFSALHTNTDFK
soluble fraction (log2): -0.984

HMDNMFMPPVNGWDVRQALQKLQNEMGLQVKMEYSPSETITEGYVISYTPIDGMKVEKGDEVTLVISTGPE
soluble fraction (log2): -0.0359

HMDNMTEMQKAVTALIEKSGGSIDNLSVIYDHLKKKYPSFDLKDYGYSRFSSFLRSMENIMVRGNAVTLRS
soluble fraction (log2): -0.211

HMDNPPDRAEIEQMLKDAGLTPEADAMAALSDLARTLDPGDFRQTLEKITLYKLGDSTPIGLDDIAAGAP
soluble fraction (log2): 0.0465

HMDNQSIVRINDGDGAWRQRLGEHFGHLPRDRKRGEIVLQVDAADWRWLQTQGYAPRFDAALSAQLQTTL
soluble fraction (log2): -0.479

HMDNVLGKSGKVIFVNEEINSYGRAFIPGHGEWNIRTKSDQNIHINDGIKVIERDGITLVVEL
soluble fraction (log2): -1.26

HMDNVQLRNFAIKATEASIIYLDQEQRNFFWYNNNKKLMTVPFDENPYSAFAAYLKTDEGSEVYKAIEKKF
soluble fraction (log2): -1.97

HMDNWAALLSEREVQVSRLVANGASNKEIADHLAITERTVKAHLTAVFEKLGVRDRLQLSLRVNGL
soluble fraction (log2): -3.94

HMDPALSPAEQKIWDLLAAGETHIDDLVRASGLPVATVNSALVMMEMKEVISQVAAKTYRRNRRN
soluble fraction (log2): -1.3

HMDPEARRRAILNAAIDVIVEKGAAALTHRAVAARAGVSLGSTTKYFSSIEDLRENAMDALVREMD
soluble fraction (log2): -0.496

HMDPEEQIQSREIWEAVERALDGMQEKGRRVVIALLEGQTQLEVSRAAGISQPLISYYLKSFRTKVRTELG
soluble fraction (log2): -0.73

HMDPEIADAVNTIKKYLESHYSEVITRKKIEELVHLNQDHINREFKKQTGYTLMEYVQHYRILMAKKMLRV
soluble fraction (log2): -0.576

HMDPEQLKIAINTKMPFGKYSGRPLLLLPEPYLVWFKQQGFPDSKLGSQLAMMYEVKLNGLEQMLMPLL
soluble fraction (log2): -0.665

HMDPERLDQLQNPDPAVRREAIIALGRSKDLAALPELAKVYKNDPVPELRELARQAGRYIQQENRP
soluble fraction (log2): 0.00398

HMDPFVILGISKDSSQSEILEAYKTKRAYYQEHVFDEGDQGAQAARMLGQLDDAYQQAMELSHE
soluble fraction (log2): 0.0281

HMDPKISWESDEKLSANIGHYENSIKPLMGNKYLIELSQLKDKIESHPWVARATIKRIFWNKIHIQLESHD
soluble fraction (log2): -0.0642

HMDPKWSHVRRLLDDENPIVRKALTEELIRSPEEGLAFLEQVIREPDHLLAKHAHNLLSELGWV
soluble fraction (log2): 0.192

HMDPLGHVIKKKRLQLGMTLRDLAAKAGVHHATIDRIETDQFKVVDPSTLVKIAEALHLDQLYLLSLN
soluble fraction (log2): -0.666

HMDPLPDEVQEVIDMVDGFKAMDELSEADKADVKAAYDAYNALSAEHKAMVPEHIVTFLNRAYDKLFD
soluble fraction (log2): 0.159

HMDPPVDLTPREQQVLSRIALGMSDKAIAAELGVSHQTVRNHVARIYAKIKVHSRSQAIVWAREKGIP
soluble fraction (log2): -2.36

HMDPSKMKIDELEIATRTATALADGGIKSVAGLIRKSASALKELDGVGDKAIAEITEALEKLGLELKG
soluble fraction (log2): 0.106

HMDPSWVPVFNNLRDAILSHQLLPGTRLAEDELSNIYGLGRTVIRSALGALTHEGLLTHIPNRGVHVAKP
soluble fraction (log2): -1.16

HMDPTIAAIRKKLKNWTIVEVHMTREELEQAVIDGKVDVFLSSAGFYRRLVRFGARDLATAMSPAYPD
soluble fraction (log2): -0.68
